From publication PMC6037669, “Optimization of a MT1-MMP-targeting Peptide and Its Application in Near-infrared Fluorescence Tumor Imaging” (Scientific Reports, 2018)

Tests used:
Settings in all cases: both partners purified
MT1-160p = biological target: T1, MT1-160p (human); test: atomic force microscopy (single-molecule recognition force spectroscopy); peptide covalently on the AFM tip through NHS-PEG18-aldehyde; MT1-160p immobilised on APTES-treated mica; PBS
T1 construct: peptide of MT1-MMP (MMP14) that holds the MT-Loop (Tyr164-Gln174); source: synthetic peptide, bought: GL Biochem Ltd. (Shanghai)
T1 peptide: REVPYAYIREGHEKQ

[1] = biological target: T2, recombinant human MT1-MMP catalytic domain (human, UniProt P50281 114-287); test: ITC; MicroCal ITC-200, 25 °C, 10 mM HEPES, 150 mM NaCl, pH 7.4; results and legend: peptides injected into MT1-MMP; methods: MT1-160p (1 mM) in the syringe into binding peptides (0.1 mM) in the cell; one-site binding model
T2 construct: MT1-MMP (MMP14), human, catalytic domain (20 kDa); PDB 1BQQ chain M is the catalytic domain structure used for the docking, not necessarily the same limits; also called Membrane type 1 metalloproteinase; MMP14

[2] = biological target: T2, recombinant human MT1-MMP catalytic …; test: atomic force microscopy (single-molecule recognition force spectroscopy); peptide covalently on the AFM tip through NHS-PEG18-aldehyde; MT1-MMP immobilised on APTES-treated mica; PBS; 25 °C; control with free excess peptide (1 mmol/L)

B1: MT1-AF7p-H4R (peptide)
peptide: HWKRLHNTKTFL
notes: MT1-AF7p with histidine 4 changed to arginine (rational design by docking); In the AFM experiments coupled covalently to the tip through an NHS-PEG18-aldehyde linker; also called optimized peptide; peptidomimetic; source: synthetic peptide, bought: GL Biochem Ltd. (Shanghai)
Q: Does B1 bind (MT1-160p)?
A: binds

Q: And the Ka [1]?
A: 175000 M⁻¹

Q: What about the dH [1] of the same binder?
A: -0.29 kcal/mol

Q: What about the “stoichiometry N” value [1] of the same binder?
A: 1.14

Q: What about the “retraction force (peak position of the histogram)” value (“retraction force” below) [2] of the same binder?
A: 260 pN

B2: MT1-AF7p (peptide)
peptide: HWKHLHNTKTFL
notes: In the AFM experiments coupled covalently to the tip through an NHS-PEG18-aldehyde linker; In the in vivo imaging Cy5.5 was conjugated to the N-terminus; also called original peptide; original ligand; source: synthetic peptide (solid-phase, Fmoc chemistry, HPLC purified)
Q: Does B2 bind (MT1-160p)?
A: binds

Q: And the Ka [1]?
A: 107000 M⁻¹

Q: What about the “retraction force” value [2] of the same binder?
A: 150 pN

B3: MT1-AF7p-H4K (peptide)
peptide: HWKKLHNTKTFL
notes: MT1-AF7p with histidine 4 changed to lysine (rational design by docking); In the AFM experiments coupled covalently to the tip through an NHS-PEG18-aldehyde linker; also called optimized peptide; peptidomimetic; source: synthetic peptide, bought: GL Biochem Ltd. (Shanghai)
Q: Does B3 bind (MT1-160p)?
A: binds

Q: And the “retraction force” value [2]?
A: 166 pN
